Measured values: article PMC1698263

Target: FMRP (fragile X mental retardation protein) (human, UniProt Q06787 1-632)
Assay: EMSA; FMRP 0.35-1.4 ug; 0.50 pmol RNA; FMRP EMSA: 30 min on ice, 6% nondenaturing PAGE; buffer, salt and pH not given (cited ref 18). Strand annealing assays (FMRP, I304N, dKHT, FXR1P) read RNA:RNA a

**Q.** Does UAGGUAGUUUCAUGUUGUUGG (ssRNA) [hsa-miR-196a-1 mature miRNA] bind?
**A.** binds
